In publication PMC3328432, “Molecular Requirements for Peroxisomal Targeting of Alanine-Glyoxylate Aminotransferase as an Essential Determinant in Primary Hyperoxaluria Type 1” (PLoS Biology, 2012) one finds stoichiometry N data, which are given here for one substance.

The target of this assay is AGT of all performed ITC measurements (wild type and AGT mutants of Table S1). The experiment in a line: ITC; 25–46 µM AGT as sample in the cell, 250–460 µM Pex5p(C) as titration ligand, 27 injections of 10 µl; 25°C; 100 mM HEPES pH 7.5, 150 mM NaCl, 2 mM ß-mercaptoethanol. (In general: ITC needs no label: the signal is the heat of the interaction.)

The term stoichiometry N denotes a count of units in the complex or per binding partner.

In turn, “C-terminal cargo-binding segment of human Pex5p (residues 315-639) (from UniProt P50542 315-639) (domain or fragment)” yielded a stoichiometry N of 1.02.
